Laboratory results taken from PMC10512822.

Target: translocated ALK of ALK-translocated NSCLC tumors (n = 6) (human (endogenous in NSCLC tumors))
Assay: proximity ligation; Duolink PLA with mouse HER3 and rabbit ALK antibodies on FFPE sections of ALK-translocated NSCLC tumors (n = 6)

With “human epidermal growth factor receptor 3 (from UniProt P21860 20-1342)” the mean signal for PLA per cell (signals per cell) was 17.2.
